T1: hemagglutinin (HA) of pandemic 2009 H1N1 (pHA, HA69) peptide on HLA-DQA1*01:02 / HLA-DQB1*06:02 (human)
T1 peptide: AMERNAGSGIIISDT

T2: HA69 peptide on HLA DQB1*06:02/DQA1*01:02 (DQ0602) (human)
T2 peptide: AMERNAGSGIIISDT

T3: hemagglutinin (HA) of pandemic 2009 H1N1 (pHA, HA69) peptide on HLA-DQA1*01:02 / HLA-DQB1*06:02 (human)
T3 peptide: AMERNAGSGIIISDT

B1: TCR CIVRVATNQGGKLIF / CASSPQGGLAEQYF (TCR)
alpha TRAV26-1 TRAJ23 CDR3: CIVRVATNQGGKLIF
beta TRBV19 TRBJ2-7 CDR3: CASSPQGGLAEQYF
B2: TCR CVVNGEAPGNQFYF / CASSVASSSYNEQFF (TCR)
alpha TRAV12-1 TRAJ49 CDR3: CVVNGEAPGNQFYF
beta TRBV4-2 TRBJ2-1 CDR3: CASSVASSSYNEQFF
B3: TCR CAARQMDSSYKLIF / CASSVASSSYNEQFF (TCR)
alpha TRAV23/DV6 TRAJ12 CDR3: CAARQMDSSYKLIF
beta TRBV4-2 TRBJ2-1 CDR3: CASSVASSSYNEQFF
B4: TCR CALSPDSWGKLQF / CASSTRAPTRTGEKLFF (TCR)
alpha TRAV6 TRAJ24 CDR3: CALSPDSWGKLQF
beta TRBV7-9 TRBJ1-4 CDR3: CASSTRAPTRTGEKLFF
B5: TCR CATDTENNARLMF / CSAGGAGPKMQYF (TCR)
alpha TRAV17 TRAJ31 CDR3: CATDTENNARLMF
beta TRBV20-1 TRBJ2-7 CDR3: CSAGGAGPKMQYF
B6: TCR CVVSEPGTYKYIF / CASSPDGTGVGNTIYF (TCR)
alpha TRAV8-2 TRAJ40 CDR3: CVVSEPGTYKYIF
beta TRBV4-2 TRBJ1-3 CDR3: CASSPDGTGVGNTIYF
B7: TCR CAGSPSQGGSEKLVF / CSARPLGTSGRDEQFF (TCR)
alpha TRAV35 TRAJ57 CDR3: CAGSPSQGGSEKLVF
beta TRBV20-1 TRBJ2-1 CDR3: CSARPLGTSGRDEQFF
B8: TCR CAVSGGNAGNMLTF / CATQKGDRGQSWGYTF (TCR)
alpha TRAV2 TRAJ39 CDR3: CAVSGGNAGNMLTF
beta TRBV6-1 TRBJ1-2 CDR3: CATQKGDRGQSWGYTF
B9: TCR CAVSPSDSWGKLQF / CASSYPGLSQETQYF (TCR)
alpha TRAV8-2 TRAJ24 CDR3: CAVSPSDSWGKLQF
beta TRBV5-5 TRBJ2-5 CDR3: CASSYPGLSQETQYF
B10: TCR CIVRVVSNQGGKLIF / CASSPQGFDYGYTF (TCR)
alpha TRAV26-1 TRAJ23 CDR3: CIVRVVSNQGGKLIF
beta TRBV19 TRBJ1-2 CDR3: CASSPQGFDYGYTF
B11: TCR43 (TCR)
alpha TRAV13-1 TRAJ43 CDR3: CAASDNDMRF
beta TRBV4-2 TRBJ1-2 CDR3: CASSQETQGRNYGYTF
B12: TCR275 (TCR)
alpha TRAV13-1 TRAJ43 CDR3: CAANNNDMRF
beta TRBV4-2 TRBJ1-2 CDR3: CASSQETQGRNYGYTF

Target: T1, hemagglutinin (HA) of pandemic 2009 …
Assay: activation reporter or marker

Binder | binding result
B1 | no recognition
B2 | no recognition
B3 | no recognition
B4 | no recognition
B5 | no recognition
B6 | no recognition
B7 | no recognition
B8 | no recognition
B9 | no recognition
B10 | no recognition

Target: T2, HA69 peptide on HLA …
Assay: activation reporter or marker

Binder | binding result
B11 | recognises
B12 | recognises
B7 | no recognition

Target: T3, hemagglutinin (HA) of pandemic 2009 …
Assay: activation reporter or marker

Binder | binding result
B11 | recognises
B12 | recognises
